Assay results as given in paper PMC10581246, “The presence of benzene ring activating CoA ligases for aromatics degradation in the ANaerobic MEthanotrophic (ANME) archaea” (Microbiology Spectrum, 2023).

How the values were obtained:
Experiment in all cases: purified protein
Settings in all cases: apparent, 1 mM ATP, 0.5 mM CoA, 10 mM MgCl2, 50 mM Tris-HCl pH 8.0, room temperature
[1] = system: O=C(O)c1cccc(O)c1
[2] = system: O=C(O)c1ccc(O)cc1
[3] = system: O=C(O)c1ccccc1
[4] = system: O=C(O)Cc1cccc(O)c1
[5] = system: O=C(O)Cc1ccc(O)cc1
[6] = system: O=C(O)Cc1ccc(O)c(O)c1
[7] = system: O=C(O)Cc1ccccc1

Row | Substance | Km [1] [µM] | kcat [1] [s⁻¹] | Km [2] [µM] | kcat [2] [s⁻¹] | Km [3] [µM] | kcat [3] [s⁻¹] | Km [4] [µM] | kcat [4] [s⁻¹] | Km [5] [µM] | kcat [5] [s⁻¹] | Km [6] [µM] | kcat [6] [s⁻¹] | Km [7] [µM] | kcat [7] [s⁻¹]
1 | BadAANME (ANME-2 cluster archaeon) | 76.97 ± 14.69 | 0.2197 ± 0.01127 | 55.08 ± 6.910 | 0.1086 ± 0.02963 | 12.98 ± 1.563 | 0.1127 ± 0.002522 |  |  |  |  |  |  |  | 
2 | PaaKANME (PaaK1ANME) (ANME-2 cluster archaeon) |  |  |  |  |  |  | 68.87 ± 9.425 | 0.254 ± 0.00895 | 49.15 ± 12.54 | 0.148 ± 0.00881 | 42.80 ± 15.03 | 0.0976 ± 0.00722 | 180.6 ± 32.18 | 0.153 ± 0.00755
